{"source": "patent US6391305", "key": {"[1]": {"system": "PEG(16)-SHomoRYQ-SL-DOX (3′)"}, "[2]": {"system": "(d)2,3-dihydroxypropionyl-HomoRSSChgQSL-DOX (3′)"}, "[3]": {"system": "2-hydroxyacetylhRYQ-SL-acid"}, "[4]": {"system": "PEG(2)-SHomoRYQ-SL-DOX(3′)"}, "[5]": {"system": "2-hydroxyacetyl-SSChgQ-SL-DOX (3′)"}, "[6]": {"system": "2-hydroxyacetyl-hRASChgQ-SL-acid"}, "[7]": {"system": "(l)2,3-dihydroxypropionyl-HomoRSSChgQ-SL-DOX (3′)"}, "[8]": {"system": "(l)2,3-dihydroxypropionyl-SSChgQ-SL-DOX (3′)"}, "[9]": {"system": "PEG(4)-β-PAL-SSChgQ-SL-acid"}, "[10]": {"system": "(d)2,3-dihydroxypropionylSSSChgQ-SL-DOX (3′)"}, "[11]": {"system": "2-hydroxyacetyl-hRSSYQ-SNle-acid"}, "[12]": {"system": "PEG(6)-ASChgQ-SL-DOX (3′)"}, "[13]": {"system": "PEG(2)-SHomoRYQ-SL-DOX (3′)"}, "[14]": {"system": "2-hydroxyacetyl-HomoRSSYQ-SL-DOX (3′)"}, "[15]": {"system": "2-hydroxyacetyl-SHomoRChgQ-SL-DOX (3′)"}, "[16]": {"system": "PEG(2)-ASChgQ-SL-DOX (3′)"}, "[17]": {"system": "PEG(2)-HomoRSSChgQ-SL-DOX (3′)"}, "[18]": {"system": "(l)2,3-dihydroxypropionylSSSChgQ-S(dL)-DOX (3′)"}, "[19]": {"system": "2,3-dihydroxypropionyl-HomoSSSChgQ-SL-DOX (3′)"}, "[20]": {"system": "(d)2,3-dihydroxypropionyl-3PALSSChgQ-SL-DOX (3′).AcOH"}, "[21]": {"system": "2,3-dihydroxypropionyl-ShRYQ-SL-acid"}, "[22]": {"system": "2(S)2,3-dihydroxypropionyl-hRSSChgQ-SL-acid"}, "[23]": {"system": "(d)2,3-dihydroxypropionyl-SHomoRChgQ-SL-DOX (3′)"}, "[24]": {"system": "PEG(2)-3PAL-SSChgQ-SL-acid"}, "[25]": {"system": "(l)2,3-dihydroxypropionyl-SHomoRChgQ-SL-DOX (3′)"}, "[26]": {"system": "2,3-dihydroxypropionyl-GSSChgQ-SL-acid"}, "[27]": {"system": "(d)2,3-dihydroxypropionyl-3PAL-SSChgQSL-acid"}, "[28]": {"system": "(2R,3S) 2,3,4-trihydroxybutanoyl-SHomoRChgQ-SL-DOX (3′)"}, "[29]": {"system": "(d)2,3-dihydroxypropionylSSChgQ-SL-DOX (3′)"}, "[30]": {"system": "(l)2,3-dihydroxypropionyl-3PAL-SSChgQ-SL-acid"}, "[31]": {"system": "(l)2,3-dihydroxypropionyl-SSSChgQ-SL-acid"}, "[32]": {"system": "2-hydroxyacetyl-HomoRASChgQ-SL-DOX (3′)"}, "[33]": {"system": "PEG(2)-SHomoRChgQ-SL-DOX (3′)"}, "[34]": {"system": "2-hydroxyacetyl-hRSSYQ-SL-acid"}, "[35]": {"system": "(l)2,3-dihydroxypropionylSSSChgQ-SL-DOX (3′)"}, "[36]": {"system": "2(S)-2,3-dihydroxy-propionyl ShRChgQSL-acid"}, "[37]": {"system": "2-hydroxyacetyl-SSChgQ-SL-acid"}, "[38]": {"system": "2-hydroxyacetyl-SSSChgQ-SL-DOX (3′)"}, "[39]": {"system": "(l)2,3-dihydroxypropionyl-SSChgQ-SL-acid"}, "[40]": {"system": "2,3-dihydroxypropionyl-hSSSChgQ-SL-acid"}, "[41]": {"system": "2-hydroxyacetyl-HomoRSSYQ-SNle-DOX (3′)"}, "[42]": {"system": "PEG(2)-SSSChgQ-SL-DOX (3′)"}, "[43]": {"system": "2-hydroxyacetyl-HomoRSSChgQ-SL-DOX (3′)"}, "[44]": {"system": "2,3-dihydroxypropionyl-SSSChgQ-SL-acid"}, "[45]": {"system": "(2R,3S) 2,3,4-trihydroxybutanoyl-ShRChgQ-SL-acid"}, "[46]": {"system": "2,3-dihydroxypropionyl-ShRChgQ-SL-acid"}}, "note": "Several values for one entry are separate records, joined by “and”; a condition that tells them apart may be missing. Identical values can stand only once.", "data": [{"substance": "free prostate specific antigen (PSA)", "values": [{"measurement": "Time to 50% Substrate Cleavage by York PSA", "setting": "[1]", "result": 65, "unit": "min"}, {"measurement": "Time to 50% Substrate Cleavage by York PSA", "setting": "[2]", "result": 12, "unit": "min"}, {"measurement": "Time to 50% Substrate Cleavage by York PSA", "setting": "PEG(2)SSSChgQ-SL-acid", "result": 150, "unit": "min"}, {"measurement": "Time to 50% Substrate Cleavage by York PSA", "setting": "[3]", "result": 105, "unit": "min"}, {"measurement": "Time to 50% Substrate Cleavage by York PSA", "setting": "[4]", "result": 35, "unit": "min"}, {"measurement": "Time to 50% Substrate Cleavage by York PSA", "setting": "[5]", "result": 45, "unit": "min"}, {"measurement": "Time to 50% Substrate Cleavage by York PSA", "setting": "[6]", "result": 70, "unit": "min"}, {"measurement": "Time to 50% Substrate Cleavage by York PSA", "setting": "[7]", "result": 12, "unit": "min"}, {"measurement": "Time to 50% Substrate Cleavage by York PSA", "setting": "[8]", "result": 25, "unit": "min"}, {"measurement": "Time to 50% Substrate Cleavage by York PSA", "setting": "AchRSSChgQ-SL-acid", "result": "120 min and 45 min"}, {"measurement": "Time to 50% Substrate Cleavage by York PSA", "setting": "PEG(2)-hRSSChgQ-SL-acid", "result": 40, "unit": "min"}, {"measurement": "Time to 50% Substrate Cleavage by York PSA", "setting": "[9]", "result": 60, "unit": "min"}, {"measurement": "Time to 50% Substrate Cleavage by York PSA", "setting": "PEG(14)ShRYQ-SL-acid", "result": 40, "unit": "min"}, {"measurement": "Time to 50% Substrate Cleavage by York PSA", "setting": "[10]", "result": 55, "unit": "min"}, {"measurement": "Time to 50% Substrate Cleavage by York PSA", "setting": "[11]", "result": 45, "unit": "min"}, {"measurement": "Time to 50% Substrate Cleavage by York PSA", "setting": "PEG(2)-S-hRChgQ-SL-acid", "result": 30, "unit": "min"}, {"measurement": "Time to 50% Substrate Cleavage by York PSA", "setting": "[12]", "result": 160, "unit": "min"}, {"measurement": "Time to 50% Substrate Cleavage by York PSA", "setting": "PEG(15)-ShRYQ-SL-acid", "result": 40, "unit": "min"}, {"measurement": "Time to 50% Substrate Cleavage by York PSA", "setting": "[13]", "result": 60, "unit": "min"}, {"measurement": "Time to 50% Substrate Cleavage by York PSA", "setting": "Ac-hRASChgQ-SL-acid", "result": 50, "unit": "min"}, {"measurement": "Time to 50% Substrate Cleavage by York PSA (Min)", "setting": "[14]", "result": "16 (PS)"}, {"measurement": "Time to 50% Substrate Cleavage by York PSA", "setting": "[15]", "result": 15, "unit": "min"}, {"measurement": "Time to 50% Substrate Cleavage by York PSA", "setting": "PEG(2)-ShRYQ-SL-acid", "result": 35, "unit": "min"}, {"measurement": "Time to 50% Substrate Cleavage by York PSA", "setting": "[16]", "result": 45, "unit": "min"}, {"measurement": "Time to 50% Substrate Cleavage by York PSA", "setting": "Ac-ANKASYQ-SL-acid", "result": "135 min and 220 min"}, {"measurement": "Time to 50% Substrate Cleavage by York PSA", "setting": "[17]", "result": 11, "unit": "min"}, {"measurement": "Time to 50% Substrate Cleavage by York PSA", "setting": "[18]", "result": 180, "unit": "min"}, {"measurement": "Time to 50% Substrate Cleavage by York PSA", "setting": "[19]", "result": 35, "unit": "min"}, {"measurement": "Time to 50% Substrate Cleavage by York PSA", "setting": "PEG(19)ShRYQ-SL-acid", "result": 60, "unit": "min"}, {"measurement": "Time to 50% Substrate Cleavage by York PSA (Min)", "setting": "[20]", "result": "12 (PS)"}, {"measurement": "Time to 50% Substrate Cleavage by York PSA", "setting": "PEG(17)-ShRYQ-SL-acid", "result": 55, "unit": "min"}, {"measurement": "Time to 50% Substrate Cleavage by York PSA", "setting": "[21]", "result": "35 min and 50 min"}, {"measurement": "Time to 50% Substrate Cleavage by York PSA", "setting": "[22]", "result": 25, "unit": "min"}, {"measurement": "Time to 50% Substrate Cleavage by York PSA", "setting": "[23]", "result": 65, "unit": "min"}, {"measurement": "Time to 50% Substrate Cleavage by York PSA", "setting": "[24]", "result": 80, "unit": "min"}, {"measurement": "Time to 50% Substrate Cleavage by York PSA", "setting": "PEG(2)SSChgQ-SL-DOX (3′)", "result": 90, "unit": "min"}, {"measurement": "Time to 50% Substrate Cleavage by York PSA", "setting": "PEG(1)-hRSSChgQ-SL-acid", "result": 30, "unit": "min"}, {"measurement": "Time to 50% Substrate Cleavage by York PSA", "setting": "[25]", "result": 15, "unit": "min"}, {"measurement": "Time to 50% Substrate Cleavage by York PSA", "setting": "[26]", "result": 160, "unit": "min"}, {"measurement": "Time to 50% Substrate Cleavage by York PSA", "setting": "[27]", "result": 80, "unit": "min"}, {"measurement": "Time to 50% Substrate Cleavage by York PSA", "setting": "[28]", "result": 45, "unit": "min"}, {"measurement": "Time to 50% Substrate Cleavage by York PSA", "setting": "[29]", "result": 120, "unit": "min"}, {"measurement": "Time to 50% Substrate Cleavage by York PSA", "setting": "[30]", "result": 70, "unit": "min"}, {"measurement": "Time to 50% Substrate Cleavage by York PSA", "setting": "[31]", "result": "80 min and 110 min"}, {"measurement": "Time to 50% Substrate Cleavage by York PSA", "setting": "[32]", "result": 10, "unit": "min"}, {"measurement": "Time to 50% Substrate Cleavage by York PSA", "setting": "[33]", "result": 25, "unit": "min"}, {"measurement": "Time to 50% Substrate Cleavage by York PSA (Min)", "setting": "[34]", "result": "35 (PP)"}, {"measurement": "Time to 50% Substrate Cleavage by York PSA", "setting": "[35]", "result": 25, "unit": "min"}, {"measurement": "Time to 50% Substrate Cleavage by York PSA (Min)", "setting": "Ac-hRSSYQ-SNle-acid", "result": "25 (PS)"}, {"measurement": "Time to 50% Substrate Cleavage by York PSA", "setting": "PEG(1)-ShRYQ-SL-acid", "result": 90, "unit": "min"}, {"measurement": "Time to 50% Substrate Cleavage by York PSA", "setting": "PEG(1)-ShRChgQ-SL-acid", "result": 120, "unit": "min"}, {"measurement": "Time to 50% Substrate Cleavage by York PSA", "setting": "[36]", "result": 35, "unit": "min"}, {"measurement": "Time to 50% Substrate Cleavage by York PSA", "setting": "[37]", "result": 180, "unit": "min"}, {"measurement": "Time to 50% Substrate Cleavage by York PSA (Min)", "setting": "Ac-hR(CHA)Q-SNle-acid", "result": "200 (PS)"}, {"measurement": "Time to 50% Substrate Cleavage by York PSA", "setting": "[38]", "result": 25, "unit": "min"}, {"measurement": "Time to 50% Substrate Cleavage by York PSA (Min)", "setting": "Ac-ShRYQ-SNle-acid", "result": "25 (PS)"}, {"measurement": "Time to 50% Substrate Cleavage by York PSA", "setting": "[39]", "result": 180, "unit": "min"}, {"measurement": "Time to 50% Substrate Cleavage by York PSA", "setting": "[40]", "result": 160, "unit": "min"}, {"measurement": "Time to 50% Substrate Cleavage by York PSA", "setting": "[41]", "result": 60, "unit": "min"}, {"measurement": "Time to 50% Substrate Cleavage by York PSA", "setting": "[42]", "result": 60, "unit": "min"}, {"measurement": "Time to 50% Substrate Cleavage by York PSA", "setting": "PEG(18)ShRYQ-SL-acid", "result": 40, "unit": "min"}, {"measurement": "Time to 50% Substrate Cleavage by York PSA", "setting": "[43]", "result": 12, "unit": "min"}, {"measurement": "Time to 50% Substrate Cleavage by York PSA", "setting": "[44]", "result": 120, "unit": "min"}, {"measurement": "Time to 50% Substrate Cleavage by York PSA", "setting": "(OH-Ac)SSSChgQ-SL-acid", "result": 120, "unit": "min"}, {"measurement": "Time to 50% Substrate Cleavage by York PSA", "setting": "[45]", "result": 90, "unit": "min"}, {"measurement": "Time to 50% Substrate Cleavage by York PSA", "setting": "PEG(16)-ShRYQ-SL-acid", "result": 40, "unit": "min"}, {"measurement": "Time to 50% Substrate Cleavage by York PSA", "setting": "[46]", "result": 75, "unit": "min"}]}]}
